Source: the supplement of paper PMC12042874
± gives the uncertainty stated by the source.

Test: amyloid nucleation score (Sup35N fusion, yeast selection) (log enrichment); library NNK3; higher = more nucleation; inactive = no reads after selection
In short: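 For the nucleation score, DiMSum gave the log enrichment of output over input reads, centred on the mode score of non-aggregating sequences. Psi-negative yeast expressing Sup35N fused to peptides of 20 random codons were induced with 100 μM copper sulfate for 24 hours and grown 7 days at 30°C on medium lacking adenine and uracil. Input and output plasmid inserts were Illumina-sequenced, and sequences with under 100 input reads were excluded.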
In the case of RVARMFGEY, the amyloid nucleation score is reported as “inactive”.
Substance RVCDMVNTASWAIICSCLHL has an amyloid nucleation score of 2.05 ± 0.068.
In the case of RVCRVAPLPAVKGLGVSQNS, the amyloid nucleation score is reported as “inactive”.
With RVDRLALLCSTSGINSDFGR the amyloid nucleation score was “inactive”.
For RVDSYVSMTYHIRWFFVRTE, the amyloid nucleation score was “inactive”.
In the case of RVEVSSTGV, the amyloid nucleation score is reported as “inactive”.
For RVFEVEKLVEIGGTMLHESN, the amyloid nucleation score was “inactive”.
With RVKQQLNLP the amyloid nucleation score was “inactive”.
In the case of RVLATFCG, the amyloid nucleation score is reported as “inactive”.
With RVLNS the amyloid nucleation score was “inactive”.
RVLRLLRVDAGHNLI gave an amyloid nucleation score of -0.029 ± 0.81.
In the case of RVRLIH, the amyloid nucleation score is reported as “inactive”.
For RVRYGGNKMHNSRKLACGQG, the amyloid nucleation score was 0.743 ± 0.18.
RVSFTSITWVSSLM showed an amyloid nucleation score of 0.003 ± 0.98.
For RVTGTCGFRRDGFESWRNTR, the amyloid nucleation score was “inactive”.
With RVVCAD the amyloid nucleation score was “inactive”.
With RWAKSEAVLLVFGEFSLVGW the amyloid nucleation score was “inactive”.
For RWFDTFLCLSR, the amyloid nucleation score was “inactive”.
In the case of RWFRLSWLEISKYA, the amyloid nucleation score is reported as “inactive”.
With RWLASNVDPKITSEIQPGAS the amyloid nucleation score was “inactive”.
In the case of RWPEPFSWFRFDYQIRDVVF, the amyloid nucleation score is reported as “inactive”.
For RWSVLAVSCM, the amyloid nucleation score was “inactive”.
For RWSVLILNPPISKKHPDDK, the amyloid nucleation score was 0.345 ± 0.69.
In the case of RWYAVLYHLV, the amyloid nucleation score is reported as “inactive”.
In the case of RYCIVLTDNVNTLHNLIIMV, the amyloid nucleation score is reported as “inactive”.
RYFAMGFRNSCYL showed an amyloid nucleation score of 2.02 ± 0.065.
For RYGDWLHHS, the amyloid nucleation score was “inactive”.
RYGFCHYCYRVLDFDVDVRW gave an amyloid nucleation score of 0.881 ± 0.14.
With RYGLVVIAVVSAVHDGDACS the amyloid nucleation score was “inactive”.
With RYKVD the amyloid nucleation score was “inactive”.
With RYLDQLI the amyloid nucleation score was “inactive”.
For RYSEWPAD, the amyloid nucleation score was “inactive”.
In the case of RYWHEASVVGFIWGKWVDVS, the amyloid nucleation score is reported as “inactive”.
In the case of RYWWYHSYRNGSGSLESYGV, the amyloid nucleation score is reported as “inactive”.
For RYYDLVSGSWWIYFG, the amyloid nucleation score was “inactive”.
In the case of SAACLIMCVLLSILVQIFGM, the amyloid nucleation score is reported as “inactive”.
For SACEMWATRHKNWRASGYNH, the amyloid nucleation score was “inactive”.
In the case of SAFKAKL, the amyloid nucleation score is reported as “inactive”.
With SAGACSV the amyloid nucleation score was “inactive”.
With SARRTVYLFQNSHRVHPFLF the amyloid nucleation score was “inactive”.
In the case of SASKKLTAFALVVFLRV, the amyloid nucleation score is reported as “inactive”.
In the case of SAWHIRVERIGVMYRVHCYD, the amyloid nucleation score is reported as 0.747 ± 0.18.
For SAWSTECYVMCSM, the amyloid nucleation score was “inactive”.
For SAYTTLRDRRCSKGYNMILG, the amyloid nucleation score was “inactive”.
With SCAECDMRWHMGGCICFVLG the amyloid nucleation score was “inactive”.
With SCEDVVANVLLYCRISGHWG the amyloid nucleation score was “inactive”.
Work on SCFCNVFVVDMMSLSMGDIL yielded an amyloid nucleation score of 2.4 ± 0.05.
For SCFCQILPFRV, the amyloid nucleation score was “inactive”.
For SCGKGRYWVLNAMINPICKQ, the amyloid nucleation score was 1.14 ± 0.096.
For SCGSDKSLFDDCIKPRSRHC, the amyloid nucleation score was “inactive”.
With SCIRVRRNATVAVVLDDMLK the amyloid nucleation score was “inactive”.
SCLSNIVFFFPCQCRSMIFS gave an amyloid nucleation score of 1.99 ± 0.063.
For SCLWGKRLMFWCE, the amyloid nucleation score was -0.528 ± 0.77.
With SCMCYGTLLVLLYISYVMVE the amyloid nucleation score was “inactive”.
With SCQNRWYSSFHKLAETRSYW the amyloid nucleation score was “inactive”.
With SCQSGMSLCLSDHRLA the amyloid nucleation score was “inactive”.
With SCRIFDPMEPTTLCENSWSL the amyloid nucleation score was “inactive”.
In the case of SCRIMSRYGAQIWCDPTYQA, the amyloid nucleation score is reported as “inactive”.
For SCRLLNFIICIGWVWGFDVS, the amyloid nucleation score was “inactive”.
For SCRNCDYLLCGNYHT, the amyloid nucleation score was “inactive”.
Work on SCSGW yielded an amyloid nucleation score of -0.351 ± 1.1.
For SCSNCVHISRTAILTGPRSA, the amyloid nucleation score was “inactive”.
With SCSSTDDWPGISSG the amyloid nucleation score was “inactive”.
For SCTVKLDCNAVDSVSMDDVD, the amyloid nucleation score was “inactive”.
With SCVARYDRAAHRRVIETRLG the amyloid nucleation score was “inactive”.
For SCVGVRVLCSAVV, the amyloid nucleation score was “inactive”.
For SDGSCRVRAFYSYKGALVSF, the amyloid nucleation score was “inactive”.
In the case of SDIAVLRRLNCMKVKLKLWH, the amyloid nucleation score is reported as “inactive”.
For SDKRQLRDR, the amyloid nucleation score was “inactive”.
For SDLTMIRVPIFITLRPPHSS, the amyloid nucleation score was “inactive”.
For SDQVGFQIEVFCVKS, the amyloid nucleation score was “inactive”.
For SDRRLK, the amyloid nucleation score was “inactive”.
For SDRSA, the amyloid nucleation score was “inactive”.
With SDYENTRTNDNDHICVLSVG the amyloid nucleation score was “inactive”.
For SDYHWYVRTSCGSFSYGHVN, the amyloid nucleation score was “inactive”.
With SEICF the amyloid nucleation score was “inactive”.
In the case of SEKYATSKYCQVTFGVTLPS, the amyloid nucleation score is reported as “inactive”.
With SEQVMRTRDSTRAKSGLNVI the amyloid nucleation score was 0.569 ± 0.22.
For SERPDFMDYEEMLGYAVKWR, the amyloid nucleation score was “inactive”.
For SERQTSLRHLGLRHLFK, the amyloid nucleation score was 1.22 ± 0.16.
With SFDFHRVMIPRDRPDYHPSM the amyloid nucleation score was “inactive”.
In the case of SFFARGVFFAIRQARQGNSG, the amyloid nucleation score is reported as “inactive”.
For SFFLIRG, the amyloid nucleation score was “inactive”.
In the case of SFGLF, the amyloid nucleation score is reported as “inactive”.
In the case of SFISVCNAVLHIR, the amyloid nucleation score is reported as “inactive”.
For SFITTCIYRNVSVFCDHSAE, the amyloid nucleation score was “inactive”.
With SFLFA the amyloid nucleation score was “inactive”.
With SFLPNKYLL the amyloid nucleation score was “inactive”.
In the case of SFMRCFNIVWYTSILLRYTW, the amyloid nucleation score is reported as “inactive”.
Substance SFMVIIYAVERVIVGITGKS has an amyloid nucleation score of 0.611 ± 0.16.
For SFNFSPCVYTCVRMCIWGYF, the amyloid nucleation score was “inactive”.
With SFNGMSCLRNNLRWNFNRNA the amyloid nucleation score was “inactive”.
SFNHFQCLFISPLTRCARGV showed an amyloid nucleation score of 1.51 ± 0.13.
Substance SFNSQSSRRVDNQRWVNLNF has an amyloid nucleation score of 0.886 ± 0.11.
With SFSCVHDDCRKLLQLRLDST the amyloid nucleation score was “inactive”.
For SFSSRRHYNLLPFRWFFRRN, the amyloid nucleation score was “inactive”.
SFSWLTFPRGSDNFQDWHCI gave an amyloid nucleation score of 0.56 ± 0.31.
With SFSYNAQLYTQVVMSRYKMR the amyloid nucleation score was -0.193 ± 0.48.
SFTYTRQSGSNLEAVGTFPH gave an amyloid nucleation score of -0.373 ± 0.69.
In the case of SFVQRVSLLMSVSVFETASS, the amyloid nucleation score is reported as “inactive”.
For SFVSSMCVTGEKVEGSRPCC, the amyloid nucleation score was “inactive”.
In the case of SFYYLVKLYSLSSSIRLFRS, the amyloid nucleation score is reported as “inactive”.
With SGAQARDV the amyloid nucleation score was “inactive”.
SGCLFAYSWSGCTLVRYDVF gave an amyloid nucleation score of -0.416 ± 0.45.
With SGCRLLVVECPASCCWDITT the amyloid nucleation score was “inactive”.
For SGCVKLVVNTCLRYY, the amyloid nucleation score was “inactive”.
With SGDLMEGGEYF the amyloid nucleation score was “inactive”.
For SGFKG, the amyloid nucleation score was “inactive”.
With SGGGIPGTLGSGDPSSPNTQ the amyloid nucleation score was “inactive”.
In the case of SGGYLYRSSLSTVNSEDAMV, the amyloid nucleation score is reported as “inactive”.
Substance SGISIVIPFPRGVQMT has an amyloid nucleation score of -0.47 ± 1.
SGIVLESLLISRFFKGFHRD showed an amyloid nucleation score of 0.926 ± 0.25.
For SGLFWRTLEPLNSVDRFYG, the amyloid nucleation score was “inactive”.
With SGLSSRNSYTFVSKRVVGVR the amyloid nucleation score was “inactive”.
In the case of SGLWHRILCSGRPTGYTQWV, the amyloid nucleation score is reported as “inactive”.
With SGLYMCRISFSPLIVMIVYG the amyloid nucleation score was 1.3 ± 0.096.
In the case of SGMKWYLRLYV, the amyloid nucleation score is reported as “inactive”.
With SGNDISCPATSIHFRVGVRS the amyloid nucleation score was “inactive”.
With SGQSNDCVMDVWMDM the amyloid nucleation score was “inactive”.
For SGRSRWNAH, the amyloid nucleation score was “inactive”.
In the case of SGSGWKICRNSHAGAVFYSR, the amyloid nucleation score is reported as “inactive”.
In the case of SGSSVPSLYCVDYAVDG, the amyloid nucleation score is reported as “inactive”.
For SGSVNIHSWCGFNSWT, the amyloid nucleation score was “inactive”.
Work on SGTHNKVSTRMFGWNFI yielded an amyloid nucleation score of 0.584 ± 0.11.
With SGTNLFRF the amyloid nucleation score was “inactive”.
In the case of SGTPVPAYSTSWQQNWVKQC, the amyloid nucleation score is reported as “inactive”.
With SGYLYFFLRSVDCRFLTSSL the amyloid nucleation score was “inactive”.
In the case of SHECHSFLHVLFNVACSWGG, the amyloid nucleation score is reported as “inactive”.
In the case of SHGLVIVRTKRPSNGFENGW, the amyloid nucleation score is reported as “inactive”.
In the case of SHPASVFGGKRMGCCSRPKG, the amyloid nucleation score is reported as -0.304 ± 1.1.
SHRNTKKFMEWIFLYFIPTM showed an amyloid nucleation score of 0.064 ± 0.62.
With SHYSSWVSRDRWSNTEFGMV the amyloid nucleation score was “inactive”.
In the case of SIADRMHFLWVGEGGTRDYA, the amyloid nucleation score is reported as “inactive”.
In the case of SICCMWMWMACAIKFQNTRR, the amyloid nucleation score is reported as -0.519 ± 1.9.
Work on SIEKAILCSCVVSMPIMRGG yielded an amyloid nucleation score of 2.3 ± 0.081.
In the case of SIFCFDYWQDIGTFMPSAVK, the amyloid nucleation score is reported as “inactive”.
With SIFMWLRNRC the amyloid nucleation score was “inactive”.
With SIFPRTCTKFFLGVTGFCFN the amyloid nucleation score was -0.322 ± 0.8.
With SIFSLLCVRLRGEVAPSRLM the amyloid nucleation score was “inactive”.
In the case of SIGCIHARCAYEEFDMVVIC, the amyloid nucleation score is reported as “inactive”.
For SIISMDKDRTLAHTDHQV, the amyloid nucleation score was “inactive”.
In the case of SIKSSISIFKYF, the amyloid nucleation score is reported as “inactive”.
For SILDWYVSVVRRGA, the amyloid nucleation score was “inactive”.
In the case of SILWSPIDEGLIIVSSVTFL, the amyloid nucleation score is reported as “inactive”.
For SIMFVCQFGGGSRNSYGCLA, the amyloid nucleation score was 2.24 ± 0.078.
SIMLFWVTGRLLRLSLLMLL gave an amyloid nucleation score of 0.45 ± 0.21.
In the case of SIRDYSFIASSC, the amyloid nucleation score is reported as “inactive”.
For SIRKHFPIRNMDELHSARN, the amyloid nucleation score was “inactive”.
In the case of SIRTWRVPRDCSAYFNGLSW, the amyloid nucleation score is reported as “inactive”.
Work on SISCCGIILIKNQASMPWAS yielded an amyloid nucleation score of 2.96 ± 0.079.
For SISMQVNHPEY, the amyloid nucleation score was “inactive”.
In the case of SISPFN, the amyloid nucleation score is reported as “inactive”.
With SISVNVCRWTRCLGTQLLSV the amyloid nucleation score was “inactive”.
In the case of SITQSRLTP, the amyloid nucleation score is reported as -0.196 ± 0.36.
In the case of SITTEVFDSQVNKLRELDGW, the amyloid nucleation score is reported as “inactive”.
In the case of SIVQLNYTELAVKWSLVS, the amyloid nucleation score is reported as “inactive”.
For SIWSALSDLLLSKREE, the amyloid nucleation score was “inactive”.
For SKAVSLCGLRLMFFPLYPGS, the amyloid nucleation score was “inactive”.
With SKCDMCTYTQRFNDL the amyloid nucleation score was “inactive”.
Substance SKESISLECIHRVWFCGTGL has an amyloid nucleation score of 0.185 ± 0.38.
